For 2 proteins, kcat/Km results are on record in ChEMBL document CHEMBL4321793, “Can Cysteine Protease Cross-Class Inhibitors Achieve Selectivity?” (J Med Chem, 2019).

Compound in data set [1]: N=C(N)NCCC[C@H](NC(=O)OCc1ccccc1)C(=O)N[C@@H](CCCNC(=N)N)C(=O)Nc1ccc2ccc(=O)oc2c1
As to the kind of experiment: (§1) Inhibition of Trypanosoma cruzi cruzipain assessed as ratio of Kcat/Km using Z-Phe-Arg-MCA as substrate by spectrofluorometric method.

Compound in data set [2]: N=C(N)NCCC[C@H](NC(=O)[C@H](Cc1ccc(NC(=N)N)cc1)NC(=O)OCc1ccccc1)C(=O)Nc1ccc2ccc(=O)oc2c1
The data set is described as §1.

Compound in data set [3]: N=C(N)NCCC[C@H](NC(=O)[C@H](Cc1ccccc1)NC(=O)OCc1ccccc1)C(=O)Nc1ccc2ccc(=O)oc2c1
Described as §1.

Compound in data set [4]: N=C(N)NCCC[C@H](NC(=O)[C@H](Cc1ccncc1)NC(=O)OCc1ccccc1)C(=O)Nc1ccc2ccc(=O)oc2c1
The description is as §1.

Substrate in data set [5]: N=C(N)NCCC[C@H](NC(=O)OCc1ccccc1)C(=O)N[C@@H](CCCNC(=N)N)C(=O)Nc1ccc2ccc(=O)oc2c1
Briefly: (§2) Inhibition of human cathepsin L assessed as ratio of Kcat/Km using Z-Phe-Arg-MCA as substrate by spectrofluorometric method.

Substrate in data set [6]: N=C(N)NCCC[C@H](NC(=O)[C@H](Cc1ccc(NC(=N)N)cc1)NC(=O)OCc1ccccc1)C(=O)Nc1ccc2ccc(=O)oc2c1
The description is as §2.

Substrate in data set [7]: N=C(N)NCCC[C@H](NC(=O)[C@H](Cc1ccccc1)NC(=O)OCc1ccccc1)C(=O)Nc1ccc2ccc(=O)oc2c1
The description is as §2.

Substrate in data set [8]: N=C(N)NCCC[C@H](NC(=O)[C@H](Cc1ccncc1)NC(=O)OCc1ccccc1)C(=O)Nc1ccc2ccc(=O)oc2c1
Described as §2.

B1: Cruzipain (Trypanosoma cruzi), P25779 (protein)
chain: MSGWARALLLAAVLVVMACLVPAATASLHAEETLTSQFAEFKQKHGRVYESAAEEAFRLSVFRENLFLARLHAAANPHATFGVTPFSDLTREEFRSRYHNGAAHFAAAQERARVPVKVEVVGAPAAVDWRARGAVTAVKDQGQCGSCWAFSAIGNVECQWFLAGHPLTNLSEQMLVSCDKTDSGCSGGLMNNAFEWIVQENNGAVYTEDSYPYASGEGISPPCTTSGHTVGATITGHVELPQDEAQIAAWLAVNGPVAVAVDASSWMTYTGGVMTSCVSEQLDHGVLLVGYNDSAAVPYWIIKNSWTTQWGEEGYIRIAKGSNQCLVKEEASSAVVGGPGPTPEPTTTTTTSAPGPSPSYFVQMSCTDAACIVGCENVTLPTGQCLLTTSGVSAIVTCGAETLTEEVFLTSTHCSGPSVRSSVPLNKCNRLLRGSVEFFCGSSSSGRLADVDRQRRHQPYHSRHRRL
Broadly, the kcat/Km is the turnover number divided by the Michaelis constant. For B1, the kcat/Km was 395 mM⁻¹ s⁻¹ in data set [1], 1100 mM⁻¹ s⁻¹ in data set [2], 9670 mM⁻¹ s⁻¹ in data set [3] and 6950 mM⁻¹ s⁻¹ in data set [4].

B2: Procathepsin L (Homo sapiens) (protein)
chain: MNPTLILAAFCLGIASATLTFDHSLEAQWTKWKAMHNRLYGMNEEGWRRAVWEKNMKMIELHNQEYREGKHSFTMAMNAFGDMTSEEFRQVMNGFQNRKPRKGKVFQEPLFYEAPRSVDWREKGYVTPVKNQGQCGSCWAFSATGALEGQMFRKTGRLISLSEQNLVDCSGPQGNEGCNGGLMDYAFQYVQDNGGLDSEESYPYEATEESCKYNPKYSVANDTGFVDIPKQEKALMKAVATVGPISVAIDAGHESFLFYKEGIYFEPDCSSEDMDHGVLVVGYGFESTESDNNKYWLVKNSWGEEWGMGGYVKMAKDRRNHCGIASAASYPTV
As for B2, the kcat/Km in data set [5] turned out to be 37000 M⁻¹ s⁻¹; in data set [6], 438000 M⁻¹ s⁻¹; in data set [7] it was 9.46e+06 M⁻¹ s⁻¹; in data set [8] it was 818000 M⁻¹ s⁻¹.
